Assay results from publication PMC10379010, “Short Peptides of Innate Immunity Protein Tag7 (PGLYRP1) Selectively Induce Inhibition or Activation of Tumor Cell Death via TNF Receptor” (International Journal of Molecular Sciences, 2023).

Target: Hsp70 (recombinant) (UniProt P0DMV8)
Assay: MST; sTNFR1 or Hsp70 labeled with Alexa Fluor 633 or 488 (200 nM), 20 min in the dark at room temperature with 16 concentrations of each compound; Monolith NT 115, IR laser power 10%; apparent Kd; triplicate

B1: peptide 17.1A (peptide)
peptide: HRDVQRT
- Kd: 222 nM

B2: peptide 17.1B (peptide)
peptide: RSNYVLKG
- Kd: 3.15 nM

B3: Tag7 protein (PGLYRP1) (natural protein)
chain: QETEDPACCSPIVPRNEWKALASECAQHLSLPLRYVVVSHTAGSSCNTPASCQQQARNVQHYHMKTLGWCDVGYNFLIGEDGLVYEGRGWNFTGAHSGHLWNPMSIGISFMGNYMDRVPTPQAIRAAQGLLACGVAQGALRSNYVLKGHRDVQRTLSPGNQLYHLIQNWPHYRSP
- Kd: 1.73 nM
